The series concerns the molecule itself. The series is described as follows: cell-based or functional assay.

B1: P-C24-P (other)
chain: MGSGSGSAPQMLRELQETNAALQDVRELLRQQVKEITFLKNTVMESDASGASYRDPMGAGAGAGPEGAGAGAGPEGAGAGAGPEGAGAGAGPEGAGAGAGPEGAGAGAGPEGAGAGAGPEGAGAGAGPEGAGAGAGPEGAGAGAGPEGARMPTSYRDPMGAGAGAGPEGAGAGAGPEGAGAGAGPEGAGAGAGPEGAGAGAGPEGAGAGAGPEGAGAGAGPEGAGAGAGPEGAGAGAGPEGAGAGAGPEGARMPTSYRDPMGAGAGAGPEGAGAGAGPEGAGAGAGPEGAGAGAGPEGARMPEFAPQMLRELQETNAALQDVRELLRQQVKEITFLKNTVMESDASGKLAAALEHHHHHH
With B1, the “half-life of P coiled-coil cross-linked hydrogel in bioerosion test at 25 C” value is ~2.6 h.

Values taken from patent US20240010673A1 (ARIZONA BOARD OF REGENTS ON BEHALF OF THE UNIVERSITY OF …, published 2024).
